Experimental data as given in the supplement of paper PMC10065799, “High-throughput profiling of sequence recognition by tyrosine kinases and SH2 domains using bacterial peptide display” (eLife, 2023).

Assays:
Grb2 SH2 = Grb2 SH2 (UniProt P62993); assay: SH2 binding enrichment of the phosphorylated peptide, bacterial display (enrichment ratio); higher = better substrate or ligand; peptides without Tyr show the background
SHP2-C SH2 = assay: as above
c-Src SH2 = assay: as above
FGFR1 = FGFR1 (UniProt P11362); assay: phosphorylation enrichment, bacterial display (enrichment ratio); higher = better substrate or ligand; peptides without Tyr show the background
Sequence of FGFR1 (P11362 whole entry, looked up): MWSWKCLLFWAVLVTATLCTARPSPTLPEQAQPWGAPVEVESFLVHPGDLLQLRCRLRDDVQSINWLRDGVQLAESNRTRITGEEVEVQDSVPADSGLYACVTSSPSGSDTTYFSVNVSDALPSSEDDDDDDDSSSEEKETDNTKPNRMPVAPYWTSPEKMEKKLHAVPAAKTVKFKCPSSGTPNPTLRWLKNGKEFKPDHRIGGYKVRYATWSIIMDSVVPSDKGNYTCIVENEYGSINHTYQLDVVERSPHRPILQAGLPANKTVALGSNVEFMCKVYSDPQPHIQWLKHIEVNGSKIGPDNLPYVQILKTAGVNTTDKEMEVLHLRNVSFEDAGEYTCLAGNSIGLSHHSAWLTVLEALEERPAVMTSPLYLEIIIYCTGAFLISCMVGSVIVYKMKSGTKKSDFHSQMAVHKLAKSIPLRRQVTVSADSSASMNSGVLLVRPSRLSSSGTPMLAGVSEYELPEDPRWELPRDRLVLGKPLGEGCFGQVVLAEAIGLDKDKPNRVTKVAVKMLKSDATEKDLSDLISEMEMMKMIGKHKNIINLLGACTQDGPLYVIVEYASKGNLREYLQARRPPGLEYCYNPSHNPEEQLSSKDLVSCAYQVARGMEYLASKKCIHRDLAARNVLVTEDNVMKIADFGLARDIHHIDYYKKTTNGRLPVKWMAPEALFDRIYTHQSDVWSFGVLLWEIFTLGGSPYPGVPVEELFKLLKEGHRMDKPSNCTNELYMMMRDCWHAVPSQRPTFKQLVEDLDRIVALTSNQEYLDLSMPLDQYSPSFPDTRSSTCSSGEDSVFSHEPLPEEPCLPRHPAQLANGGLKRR

c-Abl (mouse) = assay: as above
c-Src = assay: as above
Fes = Fes (UniProt P07332); assay: as above
Sequence of Fes (P07332 whole entry, looked up): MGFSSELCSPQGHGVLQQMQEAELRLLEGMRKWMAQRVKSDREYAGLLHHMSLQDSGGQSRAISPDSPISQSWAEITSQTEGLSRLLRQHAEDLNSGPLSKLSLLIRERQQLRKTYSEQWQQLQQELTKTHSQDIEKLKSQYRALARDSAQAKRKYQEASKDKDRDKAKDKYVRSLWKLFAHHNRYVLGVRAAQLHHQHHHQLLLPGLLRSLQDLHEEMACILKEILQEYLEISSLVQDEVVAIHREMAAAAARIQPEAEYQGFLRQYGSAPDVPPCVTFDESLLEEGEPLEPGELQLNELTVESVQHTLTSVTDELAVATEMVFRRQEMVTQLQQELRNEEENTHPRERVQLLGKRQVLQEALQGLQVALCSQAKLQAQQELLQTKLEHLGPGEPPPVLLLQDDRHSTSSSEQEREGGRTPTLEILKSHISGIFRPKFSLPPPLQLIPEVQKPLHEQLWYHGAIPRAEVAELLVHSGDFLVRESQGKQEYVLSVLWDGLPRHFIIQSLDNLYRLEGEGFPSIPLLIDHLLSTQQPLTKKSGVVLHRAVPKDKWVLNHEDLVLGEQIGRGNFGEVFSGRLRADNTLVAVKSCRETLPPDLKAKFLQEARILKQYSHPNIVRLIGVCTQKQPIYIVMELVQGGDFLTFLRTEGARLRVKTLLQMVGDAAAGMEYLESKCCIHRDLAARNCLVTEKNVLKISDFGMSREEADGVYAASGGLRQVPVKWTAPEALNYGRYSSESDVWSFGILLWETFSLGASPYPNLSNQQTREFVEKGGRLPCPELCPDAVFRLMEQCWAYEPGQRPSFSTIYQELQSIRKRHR

MERTK = MERTK (UniProt Q12866); assay: as above
Sequence of MERTK (Q12866 whole entry, looked up): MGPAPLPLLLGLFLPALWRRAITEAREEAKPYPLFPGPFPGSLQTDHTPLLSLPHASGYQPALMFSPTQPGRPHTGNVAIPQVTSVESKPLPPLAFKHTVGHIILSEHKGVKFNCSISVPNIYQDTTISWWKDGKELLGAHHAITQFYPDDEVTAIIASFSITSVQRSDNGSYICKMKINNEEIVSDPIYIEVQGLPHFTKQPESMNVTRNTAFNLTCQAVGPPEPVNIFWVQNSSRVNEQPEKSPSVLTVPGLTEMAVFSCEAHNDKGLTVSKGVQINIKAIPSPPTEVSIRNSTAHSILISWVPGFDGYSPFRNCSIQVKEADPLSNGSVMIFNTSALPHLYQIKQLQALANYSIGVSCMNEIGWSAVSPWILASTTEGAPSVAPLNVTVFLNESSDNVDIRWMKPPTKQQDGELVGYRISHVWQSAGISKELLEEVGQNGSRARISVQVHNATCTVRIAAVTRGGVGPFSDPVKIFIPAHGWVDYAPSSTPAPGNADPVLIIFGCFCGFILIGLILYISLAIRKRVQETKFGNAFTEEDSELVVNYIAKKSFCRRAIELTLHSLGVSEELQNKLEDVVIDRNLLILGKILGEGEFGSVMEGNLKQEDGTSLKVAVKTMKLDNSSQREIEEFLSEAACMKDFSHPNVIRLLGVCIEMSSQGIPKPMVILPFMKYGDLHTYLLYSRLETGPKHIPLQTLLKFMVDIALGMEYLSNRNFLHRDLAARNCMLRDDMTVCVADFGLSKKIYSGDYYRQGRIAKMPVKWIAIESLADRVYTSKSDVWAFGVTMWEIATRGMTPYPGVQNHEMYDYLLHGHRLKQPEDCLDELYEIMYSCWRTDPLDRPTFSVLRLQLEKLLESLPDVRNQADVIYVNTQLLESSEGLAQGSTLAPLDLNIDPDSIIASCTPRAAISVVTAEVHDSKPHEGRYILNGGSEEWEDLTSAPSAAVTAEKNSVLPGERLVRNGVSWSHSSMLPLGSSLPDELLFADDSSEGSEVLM

Hck = Hck (UniProt P08631); assay: as above
Sequence of Hck (P08631 whole entry, looked up): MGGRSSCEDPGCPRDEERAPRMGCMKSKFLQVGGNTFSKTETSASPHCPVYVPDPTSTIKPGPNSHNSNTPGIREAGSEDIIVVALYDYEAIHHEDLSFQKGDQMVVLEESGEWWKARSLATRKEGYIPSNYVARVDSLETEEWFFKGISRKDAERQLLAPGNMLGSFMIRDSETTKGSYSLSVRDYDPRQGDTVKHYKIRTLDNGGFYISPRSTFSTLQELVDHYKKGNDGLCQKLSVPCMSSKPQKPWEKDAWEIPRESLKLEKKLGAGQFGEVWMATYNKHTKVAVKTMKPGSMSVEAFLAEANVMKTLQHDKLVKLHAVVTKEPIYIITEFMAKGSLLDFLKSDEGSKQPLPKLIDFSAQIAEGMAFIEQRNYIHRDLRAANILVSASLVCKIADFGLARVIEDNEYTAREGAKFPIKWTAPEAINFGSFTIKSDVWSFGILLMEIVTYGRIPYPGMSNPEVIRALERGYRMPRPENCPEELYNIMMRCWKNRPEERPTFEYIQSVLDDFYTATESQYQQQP

FGFR3 = FGFR3 (UniProt P22607); assay: as above
Fyn = Fyn (UniProt P06241); assay: as above
Sequence of Fyn (P06241 whole entry, looked up): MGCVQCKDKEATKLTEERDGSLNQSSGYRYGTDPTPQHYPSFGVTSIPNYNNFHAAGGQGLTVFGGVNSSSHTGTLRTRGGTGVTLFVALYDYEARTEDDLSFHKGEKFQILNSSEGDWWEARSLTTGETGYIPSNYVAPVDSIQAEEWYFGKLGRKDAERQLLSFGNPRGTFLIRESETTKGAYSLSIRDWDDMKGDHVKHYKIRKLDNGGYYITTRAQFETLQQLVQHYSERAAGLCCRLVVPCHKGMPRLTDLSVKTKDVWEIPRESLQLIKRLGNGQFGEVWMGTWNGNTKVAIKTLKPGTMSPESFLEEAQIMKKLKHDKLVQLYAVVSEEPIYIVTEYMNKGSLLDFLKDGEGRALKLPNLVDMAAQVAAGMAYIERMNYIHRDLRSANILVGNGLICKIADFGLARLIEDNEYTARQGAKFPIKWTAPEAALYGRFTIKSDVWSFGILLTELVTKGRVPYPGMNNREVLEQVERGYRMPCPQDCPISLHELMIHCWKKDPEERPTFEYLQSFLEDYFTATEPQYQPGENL

EPHB2 = EPHB2 (UniProt P29323); assay: as above
Sequence of EPHB2 (P29323 whole entry, looked up): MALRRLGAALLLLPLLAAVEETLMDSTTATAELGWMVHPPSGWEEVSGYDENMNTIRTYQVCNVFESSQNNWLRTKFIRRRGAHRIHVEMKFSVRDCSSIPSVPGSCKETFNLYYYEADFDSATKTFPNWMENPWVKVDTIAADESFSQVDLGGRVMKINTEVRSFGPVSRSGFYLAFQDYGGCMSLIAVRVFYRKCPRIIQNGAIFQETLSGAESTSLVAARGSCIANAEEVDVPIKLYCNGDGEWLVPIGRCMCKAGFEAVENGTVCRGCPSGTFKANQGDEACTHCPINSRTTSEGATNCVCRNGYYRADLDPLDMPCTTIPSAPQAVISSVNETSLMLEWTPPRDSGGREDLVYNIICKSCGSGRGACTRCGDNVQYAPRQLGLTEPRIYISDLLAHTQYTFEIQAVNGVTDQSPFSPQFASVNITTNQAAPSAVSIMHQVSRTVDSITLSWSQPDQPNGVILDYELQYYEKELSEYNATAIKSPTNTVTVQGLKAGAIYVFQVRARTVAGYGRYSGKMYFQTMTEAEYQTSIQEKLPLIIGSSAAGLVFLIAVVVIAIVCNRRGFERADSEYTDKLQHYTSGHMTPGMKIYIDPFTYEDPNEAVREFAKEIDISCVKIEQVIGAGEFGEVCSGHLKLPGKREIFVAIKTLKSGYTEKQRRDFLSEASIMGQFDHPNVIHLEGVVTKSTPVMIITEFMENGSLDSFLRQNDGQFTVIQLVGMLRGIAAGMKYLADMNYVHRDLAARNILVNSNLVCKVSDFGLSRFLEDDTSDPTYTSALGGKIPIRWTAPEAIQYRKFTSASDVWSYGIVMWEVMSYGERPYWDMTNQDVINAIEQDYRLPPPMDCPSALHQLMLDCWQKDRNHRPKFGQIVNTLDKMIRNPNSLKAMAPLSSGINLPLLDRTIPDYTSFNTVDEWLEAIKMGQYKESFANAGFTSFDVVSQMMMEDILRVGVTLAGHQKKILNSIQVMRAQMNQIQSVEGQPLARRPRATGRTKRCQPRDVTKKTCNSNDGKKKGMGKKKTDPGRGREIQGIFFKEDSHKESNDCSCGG

EPHB1 = EPHB1 (UniProt P54762); assay: as above
Fer (mouse) = assay: as above
Jak2 = Jak2 (UniProt O60674); assay: as above
AncSZ = assay: as above
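For SH2 binding enrichment of the phosphorylated peptide, bacterial display in this document: peptide library displayed on the E. coli surface as eCPX fusions, selected cells deep-sequenced, score is each peptide's frequency after selection divided by its frequency in the input.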
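For phosphorylation enrichment, bacterial display in this document: 11-residue human phosphosite peptides and single-mutation variants displayed on the E. coli surface, counted by deep sequencing, each peptide's frequency after selection divided by its frequency in the unselected input library; frequency after pTyr selection over input frequency; kinase dosed for 20-30% of maximal phosphorylation in three min.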

Sequence of Grb2 SH2 (P62993 whole entry, looked up): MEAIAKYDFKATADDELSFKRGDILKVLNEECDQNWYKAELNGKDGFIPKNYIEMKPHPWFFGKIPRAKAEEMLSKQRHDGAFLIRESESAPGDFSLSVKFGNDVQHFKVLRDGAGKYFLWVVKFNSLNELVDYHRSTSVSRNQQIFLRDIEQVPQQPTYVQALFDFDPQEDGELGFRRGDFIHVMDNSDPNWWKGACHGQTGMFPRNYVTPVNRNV

Row | Sequence | SH2 binding enrichment (Grb2 SH2) | SH2 binding enrichment (SHP2-C SH2) | SH2 binding enrichment (c-Src SH2) | phosphorylation enrichment (FGFR1) | phosphorylation enrichment (c-Abl (mouse)) | phosphorylation enrichment (c-Src) | phosphorylation enrichment (Fes) | phosphorylation enrichment (MERTK) | phosphorylation enrichment (Hck) | phosphorylation enrichment (FGFR3) | phosphorylation enrichment (Fyn) | phosphorylation enrichment (EPHB2) | phosphorylation enrichment (EPHB1) | phosphorylation enrichment (Fer (mouse)) | phosphorylation enrichment (Jak2) | phosphorylation enrichment (AncSZ)
1 | QPTPGYEVGQR [TSC2_Y1788_E1783Q] | 1.07 | 0.666 | 0.572 | 0.609 | 0.443 | 0.329 | 0.759 | 0.255 | 0.535 | 0.621 | 0.541 | 0.474 | 0.454 | 0.21 | 0.444 | 0.637
2 | TFEPNYGTVKQ [RAPGEF6_Y1447_YF] | 0.826 | 0.794 | 0.523 | 0.471 | 0.522 | 1.22 | 0.607 | 0.442 | 0.822 | 0.63 | 1.36 | 1.53 | 0.582 | 0.881 | 0.488 | 1.01
3 | LLIMEYAKYGS [RET_Y806_V804M] | 1.41 | 1.04 | 1.11 | 0.999 | 1.51 | 0.973 | 1.81 | 0.6 | 0.64 | 1.19 | 1.03 | 1.02 | 1.4 | 0.903 | 2.18 | 1.39
4 | LTTPTYGDLNH [TUBB_Y222] | 1.02 | 0.748 | 0.662 | 1.03 | 0.702 | 3.12 | 1.47 | 0.836 | 4.7 | 1.11 | 5.58 | 1.44 | 1.14 | 1.07 | 0.84 | 1.41
5 | FSQQTYCRVSN [ABCD1_Y180_Y181C] | 0.817 | 0.688 | 1.02 | 0.538 | 0.76 | 0.881 | 0.981 | 0.745 | 1.34 | 0.644 | 0.557 | 2.1 | 3.39 | 0.558 | 0.764 | 0.875
6 | IRTGIYHGGEP [PIK3CA_Y361_V356I] | 0.751 | 0.585 | 0.364 | 0.385 | 0.516 | 0.521 | 0.501 | 0.507 | 0.572 | 0.447 | 0.551 | 0.428 | 0.392 | 0.399 | 0.653 | 0.522
7 | MDDPRYGVCPL [ZNF100_Y6_M8V] | 0.767 | 0.616 | 0.613 | 0.491 | 0.918 | 0.527 | 1.27 | 0.579 | 0.715 | 0.75 | 0.609 | 0.632 | 0.673 | 0.56 | 1.46 | 1.15
8 | SVTWTYSPALN [TP53_Y126_C124W] | 0.567 | 0.492 | 0.319 | 0.461 | 0.698 | 0.347 | 1.11 | 0.289 | 0.467 | 0.862 | 0.387 | 0.786 | 0.569 | 0.532 | 0.986 | 1.31
9 | WTAHSYRMGSA [ARHGEF7_Y785_T790A] | 0.96 | 0.794 | 0.545 | 0.556 | 0.495 | 0.48 | 0.736 | 0.377 | 0.443 | 0.438 | 0.503 | 0.457 | 0.477 | 0.38 | 0.679 | 0.683
10 | SKNFTYIWWLN [PSG4_Y271_YF] | 0.646 | 0.513 | 0.409 | 0.498 | 0.78 | 0.402 | 1.36 | 0.391 | 0.435 | 0.884 | 0.416 | 0.611 | 0.675 | 0.508 | 1.26 | 1.18
11 | CNPRRYPVLMS [OR2T1_Y182_L180R] | 1.1 | 0.954 | 1.18 | 0.384 | 0.59 | 0.494 | 0.833 | 0.411 | 0.373 | 0.485 | 0.501 | 0.496 | 0.49 | 0.358 | 0.822 | 0.625
12 | GDPTEYYSTAI [IGSF22_Y501] | 0.959 | 0.734 | 0.619 | 2.04 | 0.636 | 0.87 | 0.873 | 0.497 | 0.809 | 1.74 | 0.599 | 0.555 | 0.598 | 0.738 | 0.954 | 1.77
13 | PLQKTYNYNML [SLC4A1_Y553_V557M] | 0.78 | 0.623 | 1.37 | 0.589 | 0.816 | 0.52 | 1.01 | 0.52 | 0.578 | 0.678 | 0.39 | 1.03 | 0.76 | 0.395 | 0.649 | 0.878
14 | QQLQGYIPSNY [FRK_Y99] | 0.944 | 0.477 | 0.333 | 0.314 | 0.47 | 0.382 | 0.671 | 0.475 | 0.633 | 0.49 | 0.356 | 0.437 | 0.473 | 0.329 | 0.647 | 0.623
15 | RVGVDYEGGGC [PLOD1_Y675] | 1.39 | 0.884 | 0.773 |  | 0.239 | 0.287 |  |  |  |  |  |  |  |  | 0.377 | 
16 | DCPASYKKKSM [PDGFRA_Y768_R764C] |  |  |  | 0.416 | 0.337 | 0.253 | 0.323 | 0.363 | 0.368 | 0.202 | 0.283 | 0.189 | 0.591 | 0.384 | 0.168 | 0.394
